Assay [1] concerns the target HLA-DP2 with human peptide HU2 (human).
Assay [2] addresses HLA-DP2 with human peptide HU19 (human).
Assay [3] deals with HLA-DP2 with human peptide HU29 (human).
The target of assay [4] is HLA-DP2 with human peptide HU24 (human).
Assay [5] deals with HLA-DP2 with human peptide HU21 (human).
Assay [6] addresses HLA-DP2 with human peptide HU28 (human).
Assay [7] deals with HLA-DP2 with human peptide HU17 (human).
The target of assay [8] is HLA-DP2 with human peptide HU5 (human).
In assay [9] the target is HLA-DP2 with human peptide HU3 (human).
Assay [10] deals with HLA-DP2 with human peptide HU31 (human).
Assay [11] concerns the target HLA-DP2 with human peptide HU39 (human).
For assay [12], the target named is HLA-DP2 with human peptide HU25 (human).
In assay [13] the target is HLA-DP2 with human peptide HU20 (human).
In assay [14] the target is HLA-DP2 with human peptide HU15 (human).
Assay [15] concerns the target HLA-DP2 with human peptide HU11 (human).
Assay [16] deals with HLA-DP2 with human peptide HU6 (human).
The target of assay [17] is HLA-DP2 with human peptide HU1 (human).
In assay [18] the target is HLA-DP2 with human peptide HU22 (human).
The target in assay [19] is HLA-DP2 with human peptide HU38 (human).
In assay [20] the target is HLA-DP2 with human peptide HU9 (human).
For assay [21], the target named is HLA-DP2 with human peptide HU33 (human).
Assay [22] concerns the target HLA-DP2 with human peptide HU35 (human).
The target of assay [23] is HLA-DP2 with human peptide HU8 (human).
The target of assay [24] is HLA-DP2 with human peptide HU16 (human).
The target of assay [25] is HLA-DP2 with human peptide HU7 (human).
In assay [26] the target is HLA-DP2 with human peptide HU10 (human).

Two substances from paper PMC3698527 can be followed below.

AV9 TCR on the T cell hybridoma AV9: the IL-2 secretion of AV9 hybridoma, 0.5 µg/ml peptide, 75 µM BeSO4 in assay [1] was 966 pg/mL; in assay [2], 4.6 pg/mL; in assay [3], 4.6 pg/mL; in [4] it was 4.6 pg/mL; in assay [5], 48.8 pg/mL; in [6], 4.6 pg/mL. Moreover, the IL-2 secretion of AV9 hybridoma, 0.5 µg/ml peptide, 75 µM BeSO4 came to 16.3 pg/mL in [7]; 4.6 pg/mL in assay [8]; 75.1 pg/mL in [9]; 1040 pg/mL in [10]; 68.7 pg/mL in [11]; 847 pg/mL in assay [12]. The IL-2 secretion of AV9 hybridoma, 0.5 µg/ml peptide, 75 µM BeSO4 in assay [13] was determined as 4.6 pg/mL; in [14], 49.3 pg/mL; in assay [15] it was 5.6 pg/mL; in assay [16], 4.1 pg/mL; in assay [17], 1120 pg/mL; in assay [18], 4.1 pg/mL. For the same substance, the IL-2 secretion of AV9 hybridoma, 0.5 µg/ml peptide, 75 µM BeSO4 in [19] stood at 5.1 pg/mL; in [20], 48.6 pg/mL; in [21], 954 pg/mL; in assay [22] it was 1040 pg/mL.
In the case of AV22 TCR on the T cell hybridoma AV22, the IL-2 secretion of AV22 hybridoma, 0.5 µg/ml peptide, 75 µM BeSO4 amounted to 716 pg/mL in assay [1]; 4.1 pg/mL in [2]; 17.4 pg/mL in assay [5]; 15.6 pg/mL in [7]; 4.6 pg/mL in assay [23]; 4.1 pg/mL in [8]. Also, the IL-2 secretion of AV22 hybridoma, 0.5 µg/ml peptide, 75 µM BeSO4 came out at 29.3 pg/mL in assay [9]; 973 pg/mL in assay [10]; 4.6 pg/mL in assay [24]; 22.4 pg/mL in [11]; 622 pg/mL in [12]; 4.6 pg/mL in assay [13]. The IL-2 secretion of AV22 hybridoma, 0.5 µg/ml peptide, 75 µM BeSO4 in [25] is 4.1 pg/mL; in [26], 5.1 pg/mL; in assay [17], 997 pg/mL; in [18], 5.1 pg/mL; in [19], 5.6 pg/mL; in assay [20], 21.7 pg/mL. The same substance registered an IL-2 secretion of AV22 hybridoma, 0.5 µg/ml peptide, 75 µM BeSO4 in assay [22] of 947 pg/mL.
